Values quoted from earlier work as cited in article PMC4479967 (Journal of molecular neuroscience : MN, 2015).

Conditions: Src-dependent; ref Daulhac et al., 1999

B1: CCK: cholecystokinin (peptide, UniProt P06307 21-115, looked up)
Cholecystokinin: QPVPPADPAGSGLQRAEEAPRRQLRVSQRTDGESRAHLGALLARYIQQARKAPSGRMSIVKNLQNLDPSHRISDRDYMGWMDFGRRSAEEYEYPS
Effect on ERK-1 and p85/p110-PI-3-K: causes activation
